# According to patent US10472401B2, “Peptides and combination of peptides for use in immunotherapy against ovarian cancer and other cancers” (immatics biotechnologies GmbH, priority 2015, dated 2019):
# What was measured:
# CD8+ T cells = experiment: In vitro immunogenicity: priming of CD8+ T cells with aAPCs loaded with peptide/MHC and anti-CD28, multimer staining; type: cell-based, human; conditions: for wells: positive wells
# Description: In order to obtain information regarding the immunogenicity of the TUMAPs of the present invention, the inventors performed investigations using an in vitro T-cell priming assay based on repeated stimulations of CD8+ T cells with artificial antigen presenting cells (aAPCs) loaded with peptide/MHC complexes and anti-CD28 antibody.
# In order to perform in vitro stimulations by artificial antigen presenting cells loaded with peptide-MHC complex (pMHC) and anti-CD28 antibody, the inventors first isolated CD8+ T cells from fresh HLA-A*02 leukopheresis products via positive selection using CD8 microbeads (Miltenyi Biotec, Bergisch-Gladbach, Germany) of healthy donors obtained from the University clinics Mannheim, Germany, after informed consent.
# PBMCs and isolated CD8+ lymphocytes were incubated in T-cell medium (TCM) until use consisting of RPMI-Glutamax (Invitrogen, Karlsruhe, Germany) supplemented with 10% heat inactivated human AB serum (PAN-Biotech, Aidenbach, Germany), 100 U/ml Penicillin/100 μg/ml Streptomycin (Cambrex, Cologne, Germany), 1 mM sodium pyruvate (CC Pro, Oberdorla, Germany), 20 μg/ml Gentamycin (Cambrex). 2.5 ng/ml IL-7 (PromoCell, Heidelberg, Germany) and 10 U/ml IL-2 (Novartis Pharma, Nürnberg, Germany) were also added to the TCM at this step.
# Generation of pMHC/anti-CD28 coated beads, T-cell stimulations and readout was performed in a highly defined in vitro system using four different pMHC molecules per stimulation condition and 8 different pMHC molecules per readout condition.
# The purified co-stimulatory mouse IgG2a anti human CD28 Ab 9.3 (Jung et al., 1987) was chemically biotinylated using Sulfo-N-hydroxysuccinimidobiotin as recommended by the manufacturer (Perbio, Bonn, Germany). Beads used were 5.6 μm diameter streptavidin coated polystyrene particles (Bangs Laboratories, Illinois, USA).
# pMHC used for positive and negative control stimulations were A*0201/MLA-001 (peptide […] (SEQ ID NO. 664) from modified Melan-A/MART-1) and A*0201/DDX5-001 ([…] from DDX5, SEQ ID NO. 665), respectively.
# 800.000 beads/200 μl were coated in 96-well plates in the presence of 4×12.5 ng different biotin-pMHC, washed and 600 ng biotin anti-CD28 were added subsequently in a volume of 200 μl. Stimulations were initiated in 96-well plates by co-incubating […] CD8+ T cells with 2×10^5 washed coated beads in 200 μl TCM supplemented with 5 ng/ml IL-12 (PromoCell) for 3 days at 37° C. Half of the medium was then exchanged by fresh TCM supplemented with 80 U/ml IL-2 and incubating was continued for 4 days at 37° C. This stimulation cycle was performed for a total of three times. For the pMHC multimer readout using 8 different pMHC molecules per condition, a two-dimensional combinatorial coding approach was used as previously described (Andersen et al., 2012) with minor modifications encompassing coupling to 5 different fluorochromes. Finally, multimeric analyses were performed by staining the cells with Live/dead near IR dye (Invitrogen, Karlsruhe, Germany), CD8-FITC antibody clone SK1 (BD, Heidelberg, Germany) and fluorescent pMHC multimers. For analysis, a BD LSRII SORP cytometer equipped with appropriate lasers and filters was used. Peptide specific cells were calculated as percentage of total CD8+ cells. Evaluation of multimeric analysis was done using the FlowJo software (Tree Star, Oregon, USA). In vitro priming of specific multimer+ CD8+ lymphocytes was detected by comparing to negative control stimulations.
# Exemplary flow cytometry results after TUMAP-specific multimer staining for two peptides of the invention are shown in FIG. 3 together with corresponding negative controls.
# HLA-A*02:01 = HLA-A*02:01 (Homo sapiens, UniProt P04439, D140Y/D185E/D98H/E176V/E277Q/G131W/G231S/I119V/I121R/I166T/I218V/L300P/L318F/N151K/N90K/P208A/P217A/Q86G/Q94H/R138H/R169H/T345S); experiment: MHC binding assay (UV-ligand exchange, ELISA of stabilized MHC complexes); conditions: MHC class I binding score; binding to HLA-A*02:01 ranged by peptide exchange yield (UV-ligand exchange, ELISA)
# Procedure, shortened: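 Binding scored as exchange yield, detected via β2m of stabilized complexes in an HRP/TMB ELISA read at 450 nm after streptavidin capture of 100-fold diluted monomers for 1 h at 37 °C. Complexes came from UV irradiation cleaving a photolabile peptide, exchanged for the candidate.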
Substance,Peptide exchange (HLA-A*02:01),other results
38 (FLLEDDIHVS; listed as Homo sapiens) [compound 38],″+++″ (≥50% = +++),"Wells positive [%] (CD8+ T cells; HLA-A*02 restricted peptides, percentage of positive wells (among evaluable)): ″+″ (<20% = +)"
652 (TLWYRAPEV; listed as Homo sapiens) [compound 652],–,"donors (CD8+ T cells; HLA class I peptides, positive donors): ++++ (> = 70% = ++++)"
663 (KIQEMQHFL; listed as Homo sapiens) [compound 663],–,wells (CD8+ T cells; HLA class I peptides): + (<20% = +)
662 (KIQEILTQV; listed as Homo sapiens) [compound 662],–,wells (CD8+ T cells; HLA class I peptides): + (<20% = +)
659 (ILFPDIIARA; listed as Homo sapiens) [compound 659],–,wells (CD8+ T cells; HLA class I peptides): + (<20% = +)
266 (KITDTLIHL; listed as Homo sapiens) [compound 266],″+++″ (≥50% = +++),–
282 (LLADVVPTT; listed as Homo sapiens) [compound 282],″+++″ (≥50% = +++),–
438 (KLLPLAGLYL; listed as Homo sapiens) [compound 438],″++++″ (≥75% = ++++),–
123 (NLWDLTDASVV; listed as Homo sapiens) [compound 123],″+++″ (≥50% = +++),–
10 (FLATFPLAAV; listed as Homo sapiens) [compound 10],″++++″ (≥75% = ++++),–
395 (ALALGGIAVV; listed as Homo sapiens) [compound 395],″++++″ (≥75% = ++++),–
466 (VLIANLEKL; listed as Homo sapiens) [compound 466],″++++″ (≥75% = ++++),–
72 (SLLELDGINL; listed as Homo sapiens) [compound 72],″+++″ (≥50% = +++),–
355 (SIQQSIERLLV; listed as Homo sapiens) [compound 355],″++″ (≥20% = ++),–
12 (SLWPDPMEV; listed as Homo sapiens) [compound 12],″+++″ (≥50% = +++),–
365 (YVIDQGETDVYV; listed as Homo sapiens) [compound 365],″+++″ (≥50% = +++),–
87 (ALPEAPAPLLPHIT; listed as Homo sapiens) [compound 87],″++″ (≥20% = ++),–
615 (VLPPDTDPA; listed as Homo sapiens) [compound 615],″++″ (≥20% = ++),–
64 (YAAPGGLIGV; listed as Homo sapiens) [compound 64],″++″ (≥20% = ++),–

Substance,Peptide exchange (HLA-A*02:01),other results
504 (GLSDGNPSL; listed as Homo sapiens) [compound 504],″++″ (≥20% = ++),–
129 (GLLDGGVDILL; listed as Homo sapiens) [compound 129],″+++″ (≥50% = +++),–
183 (FGLDLVTEL; listed as Homo sapiens) [compound 183],″+++″ (≥50% = +++),–
189 (ALQRKLPYV; listed as Homo sapiens) [compound 189],″+++″ (≥50% = +++),–
519 (GLLHLTLLL; listed as Homo sapiens) [compound 519],″+++″ (≥50% = +++),–
480 (ALLEDSCHYL; listed as Homo sapiens) [compound 480],″+++″ (≥50% = +++),–
221 (ALYEEGLLL; listed as Homo sapiens) [compound 221],″++″ (≥20% = ++),–
162 (YQQAQVPSV; listed as Homo sapiens) [compound 162],″+++″ (≥50% = +++),–
219 (KLSDIGITV; listed as Homo sapiens) [compound 219],″+++″ (≥50% = +++),–
388 (SLTIDGIRYV; listed as Homo sapiens) [compound 388],″+++″ (≥50% = +++),–
299 (YLLETSGNL; listed as Homo sapiens) [compound 299],″+++″ (≥50% = +++),–
74 (ALLDPEVLSIFV; listed as Homo sapiens) [compound 74],″+++″ (≥50% = +++),–
205 (SLYPGTETMGL; listed as Homo sapiens) [compound 205],″+++″ (≥50% = +++),–
604 (SILDRDDIFV; listed as Homo sapiens) [compound 604],″+++″ (≥50% = +++),–
193 (QLLDADGFLNV; listed as Homo sapiens) [compound 193],″+++″ (≥50% = +++),–
530 (VMYADIGGMDI; listed as Homo sapiens) [compound 530],″+++″ (≥50% = +++),–
597 (KLLEGQVIQL; listed as Homo sapiens) [compound 597],″+++″ (≥50% = +++),–
103 (TLAEEVVAL; listed as Homo sapiens) [compound 103],″+++″ (≥50% = +++),–
427 (ALLPLSPYL; listed as Homo sapiens) [compound 427],″+++″ (≥50% = +++),–

Substance,Peptide exchange (HLA-A*02:01),other results
474 (YLDPALELGPRNV; listed as Homo sapiens) [compound 474],″+++″ (≥50% = +++),–
54 (SLLEQGKEPWMV; listed as Homo sapiens) [compound 54],″+++″ (≥50% = +++),–
554 (LLMPSSEDLLL; listed as Homo sapiens) [compound 554],″+++″ (≥50% = +++),–
55 (SLLDLETLSL; listed as Homo sapiens) [compound 55],″++++″ (≥75% = ++++),–
215 (QLINHLHAV; listed as Homo sapiens) [compound 215],″+++″ (≥50% = +++),–
436 (HLAEVSAEV; listed as Homo sapiens) [compound 436],″+++″ (≥50% = +++),–
250 (ALSEEGLLVYL; listed as Homo sapiens) [compound 250],″+++″ (≥50% = +++),–
196 (YLYSVEIKL; listed as Homo sapiens) [compound 196],″++++″ (≥75% = ++++),–
378 (ALGYFVPYV; listed as Homo sapiens) [compound 378],″+++″ (≥50% = +++),–
273 (NLFQSVREV; listed as Homo sapiens) [compound 273],″++″ (≥20% = ++),–
78 (SLFSSLEPQIQPV; listed as Homo sapiens) [compound 78],″+++″ (≥50% = +++),–
312 (IISDLTIAL; listed as Homo sapiens) [compound 312],″+++″ (≥50% = +++),–
178 (ALTEIAFVV; listed as Homo sapiens) [compound 178],″++++″ (≥75% = ++++),–
23 (VLLDDIFAQL; listed as Homo sapiens) [compound 23],″+++″ (≥50% = +++),–
288 (NLINEINGV; listed as Homo sapiens) [compound 288],″+++″ (≥50% = +++),–
237 (ALLEASGTLLL; listed as Homo sapiens) [compound 237],″++++″ (≥75% = ++++),–
337 (HLLSELEAAPYL; listed as Homo sapiens) [compound 337],″++++″ (≥75% = ++++),–
108 (ALFPGVALLLA; listed as Homo sapiens) [compound 108],″++++″ (≥75% = ++++),–
452 (ILLEHGADPNL; listed as Homo sapiens) [compound 452],″+++″ (≥50% = +++),–
